Measured values from patent US20150175665A1 (IPSEN PHARMA S A S, published 2015).
Changes are numbered by the printed parent chain. Each block holds one binder with its values, some of them ahead of it.

Biological target: T1, human recombinant GIP receptor (human, UniProt P48546 22-466)
T1 construct: whole, on cells; Assayed as washed membranes of CHO-K1 cells expressing the receptor; also called hGIP receptor
T1 sequence (looked up): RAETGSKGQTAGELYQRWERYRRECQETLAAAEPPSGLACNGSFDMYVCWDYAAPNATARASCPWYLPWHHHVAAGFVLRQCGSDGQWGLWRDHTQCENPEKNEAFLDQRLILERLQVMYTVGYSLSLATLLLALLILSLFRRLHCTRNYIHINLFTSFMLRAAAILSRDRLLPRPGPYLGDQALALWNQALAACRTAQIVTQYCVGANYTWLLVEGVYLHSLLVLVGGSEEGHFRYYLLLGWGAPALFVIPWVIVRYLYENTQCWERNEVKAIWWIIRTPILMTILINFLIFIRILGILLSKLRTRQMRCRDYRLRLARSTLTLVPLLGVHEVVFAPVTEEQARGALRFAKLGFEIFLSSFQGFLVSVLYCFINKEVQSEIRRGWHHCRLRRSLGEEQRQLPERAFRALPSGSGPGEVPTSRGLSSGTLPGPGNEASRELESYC
Experiment: displacement of [125I]GIP, membranes of CHO-K1 cells expressing human GIP receptor
Protocol: Membranes for in vitro receptor binding assays were prepared by homogenizing the CHO—K1 clonal cells expressing the human recombinant GIP receptor, with a Brinkman Polytron (setting 6, 15 sec), in ice-cold 50 mM Tris-HCl and then subjected to two centrifugations at 39,000 g for 10 minutes, with a resuspension in fresh buffer in between. For the assay, aliquots of the washed membrane preparations were incubated (100 minutes at 25° C. with 0.05 nM [¹²⁵1]GIP (2200 Ci/mmol) in 50 mM Tris-HCl, 0.1 mg/ml bacitracin, and 0.1% BSA. The final assay volume was 0.5 ml. The incubations were terminated by rapid filtration through GF/C filters (pre-soaked in 0.5% polyethylenimine) using a Brandel filtration manifold. Each tube and filter were then washed three times with 5-ml aliquots of ice-cold buffer.
Specific binding was defined as the total radioligand bound minus that bound in the presence of 1000 nM GIP.

B2: (4Me-Phe^1, Aib^2, A5c^11, His^43)hGIP(1-43)-OH (peptide)
peptide: FXEGTFISDYXIAMDKIHQQDFVNWLLAQKGKKNDWKHNITQH
modifications: 4Me-Phe at 1; Aib at 2; A5c at 11
- Ki: 9.13 nM

B4: (2,6Me-Tyr^1, Aib^2, A5c^11, 14, His^43)hGIP(1-43)-OH (peptide)
peptide: B2 peptide with F1Y, M14X
modifications: 2,6Me-Tyr at 1; Aib at 2; A5c at 11 and 14
- Ki: 50.2 nM

B5: (3Cl-Tyr^1, D-Ala^2, A5c^11, Nle^14, His^43)hGIP(1-43)-OH (peptide)
peptide: B2 peptide with F1Y, X2A, M14X
modifications: 3Cl-Tyr at 1; D-Ala at 2; A5c at 11; Nle at 14
notes: X stands for a non-natural residue
- Ki: 8.89 nM

B6: (3Br-Tyr^1, Aib^2, A5c^11, 14, His^43)hGIP(1-43)-OH (peptide)
peptide: B2 peptide with F1Y, M14X
modifications: 3Br-Tyr at 1; Aib at 2; A5c at 11 and 14
- Ki: 0.92 nM

B10: (3Cl-Tyr^1, D-Ala^2, A5c^11, 14, His^43)hGIP(1-43)-OH (peptide)
peptide: B2 peptide with F1Y, X2A, M14X
modifications: 3Cl-Tyr at 1; D-Ala at 2; A5c at 11 and 14
notes: as for B5
- Ki: 5.06 nM

B13: (3MeO-Tyr^1, Aib^2, A5c^11, 14, 41-His^43)hGIP(1-43)-OH (peptide)
peptide: B2 peptide with F1X, M14X, T41X
modifications: 3MeO-Tyr at 1; Aib at 2; A5c at 11, 14 and 41
- Ki: 6.4 nM

B14: (2,6Me-Tyr^1, Aib^2, A5c^11, His^43)hGIP(1-43)-OH (peptide)
peptide: B2 peptide with F1Y
modifications: 2,6Me-Tyr at 1; Aib at 2; A5c at 11
- Ki: 35 nM

B15: [3Cl-Tyr^1, D-Ala^2, A5c^11, Nle^14, Lys^43(N-C(O)-(CH2)10-CH3)]hGIP(1-43)-OH (peptide)
peptide: B2 peptide with F1Y, X2A, M14X, H43K
modifications: 3Cl-Tyr at 1; D-Ala at 2; A5c at 11; Nle at 14; Lys(N-C(O)-(CH2)10-CH3) at 43
notes: as for B5
- Ki: 6.64 nM

B17: [3Cl-Tyr^1, D-Ala^2, A5c^11, Nle^14, Cys^43(succinimide)]hGIP(1-43)-OH (peptide)
peptide: B2 peptide with F1Y, X2A, M14X, H43C
modifications: 3Cl-Tyr at 1; D-Ala at 2; A5c at 11; Nle at 14; Cys(succinimide) at 43
notes: as for B5
- Ki: 9.13 nM

B20: [3Cl-Tyr^1, D-Ala^2, A5c^11, 14, Cys^43(succinimide)]hGIP(1-43)-OH (peptide)
peptide: B2 peptide with F1Y, X2A, M14X, H43C
modifications: 3Cl-Tyr at 1; D-Ala at 2; A5c at 11 and 14; Cys(succinimide) at 43
notes: as for B5
- Ki: 1.41 nM

B21: (4Hppa^1, Aib^2, 11)hGIP(1-30)-NH2 (peptide)
peptide: XXEGTFISDYXIAMDKIHQQDFVNWLLAQK
modifications: 4Hppa at 1; Aib at 2 and 11; C-terminal amide
- Ki: 15.4 nM

B26: (His^1, Aib^2, 13, Nle^14)hGIP(1-42)-OH (peptide)
peptide: HXEGTFISDYSIXXDKIHQQDFVNWLLAQKGKKNDWKHNITQ
modifications: Aib at 2 and 13; Nle at 14
- Ki: 3.33 nM

B27: (Cpa^1, Aib^2, A5c^11, Nle^14)hGIP(1-42)-OH (peptide)
peptide: B26 peptide with H1X, S11X, X13A
modifications: Cpa (4-Cl-phenylalanine) at 1; Aib at 2; A5c at 11; Nle at 14
- Ki: 9.4 nM

More lines, in order of falling Ki, values ahead:

- Ki: 49 nM
B24: [Tyr^1-Ψ-(CH2-NH)Gly^2, A5c^11, 41]hGIP(1-42)-OH (peptide)
peptide: YGEGTFISDYXIAMDKIHQQDFVNWLLAQKGKKNDWKHNIXQ
modifications: pseudopeptide bond Ψ-(CH2-NH) between Tyr 1 and Gly 2; A5c at 11 and 41

- Ki: 42.4 nM
B19: [3Cl-Tyr^1, Aib^2, A5c^11, Nle^14, Cys^43(succinimide-N-(CH2)2-C(O)NH-(CH2)3-O-CH2-CH(20K PEG)-CH2-20K PEG)]hGIP(1-43)-NH2 (peptide)
peptide: B2 peptide with F1Y, M14X, H43C
modifications: 3Cl-Tyr at 1; Aib at 2; A5c at 11; Nle at 14; Cys(succinimide-N-(CH2)2-C(O)NH-(CH2)3-O-CH2-CH(20K PEG)-CH2-20K PEG) at 43; C-terminal amide
notes: Branched PEGylated analogue

- Ki: 39 nM
B8: (2,6Me-Tyr^1, Aib^2, A5c^11, Nle^14, His^43)hGIP(1-43)-OH (peptide)
peptide: B2 peptide with F1Y, M14X
modifications: 2,6Me-Tyr at 1; Aib at 2; A5c at 11; Nle at 14

- Ki: 20.3 nM
B22: (4Hppa^1, Aib^2, 11, Nle^14)hGIP(1-30)-NH2 (peptide)
peptide: B21 peptide with M14X
modifications: 4Hppa at 1; Aib at 2 and 11; Nle at 14; C-terminal amide

- Ki: 12.6 nM
B1: (4Hppa^1, Aib^2, A5c^7, Nle^14)hGIP(1-30)-NH2 (peptide)
peptide: B21 peptide with I7X, X11S, M14X
modifications: 4Hppa (3-(4-hydroxyphenyl)propionic acid) at 1; Aib at 2; A5c at 7; Nle at 14; C-terminal amide

- Ki: 10.4 nM
B23: (3F-Tyr^1, Gly^2, A5c^11, 40)hGIP(1-42)-OH (peptide)
peptide: B24 peptide with I40X, X41T
modifications: 3F-Tyr at 1; A5c at 11 and 40

- Ki: 9.34 nM
B12: (3MeO-Tyr^1, Aib^2, A5c^11, 14, His^43)hGIP(1-43)-OH (peptide)
peptide: B2 peptide with F1X, M14X
modifications: 3MeO-Tyr at 1; Aib at 2; A5c at 11 and 14

- Ki: 9.06 nM
B18: [3Cl-Tyr^1, D-Ala^2, A5c^11, 14, Lys^43(N-C(O)-(CH2)10-CH3)]hGIP(1-43)-OH (peptide)
peptide: B2 peptide with F1Y, X2A, M14X, H43K
modifications: 3Cl-Tyr at 1; D-Ala at 2; A5c at 11 and 14; Lys(N-C(O)-(CH2)10-CH3) at 43
notes: as for B5

- Ki: 5 nM
B25: (4Hppa^1, Aib^2, A5c^7)hGIP(1-30)-NH2 (peptide)
peptide: B21 peptide with I7X, X11S
modifications: 4Hppa at 1; Aib at 2; A5c at 7; C-terminal amide

- Ki: 3.9 nM
B9: (3MeO-Tyr^1, Aib^2, A5c^11, His^43)hGIP(1-43)-OH (peptide)
peptide: B2 peptide with F1X
modifications: 3MeO-Tyr at 1; Aib at 2; A5c at 11

- Ki: 1.09 nM
B7: (3Br-Tyr^1, Aib^2, A5c^11, Nle^14, His^43)hGIP(1-43)-OH (peptide)
peptide: B2 peptide with F1Y, M14X
modifications: 3Br-Tyr at 1; Aib at 2; A5c at 11; Nle at 14

- Ki: 0.83 nM
B16: (3Cl-Tyr^1, Aib^2, A5c^11, Nle^14, Cys^43)hGIP(1-43)-OH (peptide)
peptide: B2 peptide with F1Y, M14X, H43C
modifications: 3Cl-Tyr at 1; Aib at 2; A5c at 11; Nle at 14

- Ki: 0.78 nM
B3: (3Cl-Tyr^1, Aib^2, A5c^11, 14, His^43)hGIP(1-43)-OH (peptide)
peptide: B2 peptide with F1Y, M14X
modifications: 3Cl-Tyr at 1; Aib at 2; A5c at 11 and 14

- Ki: 0.76 nM
B11: (3Cl-Tyr^1, Aib^2, A5c^11, Nle^14, His^43)hGIP(1-43)-OH (peptide)
peptide: B2 peptide with F1Y, M14X
modifications: 3Cl-Tyr at 1; Aib at 2; A5c at 11; Nle at 14
